Measured values as given in patent EP2265632B1, “CD4-RELATED POLYPEPTIDES AND METHODS OF USE” (priority 2008, dated 2009).

What was measured:
[1] = molecular target: recombinant HIV-1BaL gp120 (HIV-1 BaL); assay: ELISA on immobilized gp120BaL in 25 mM DTT
[2] = molecular target: recombinant HIV-1BaL gp120 (HIV-1 BaL); assay: ELISA on immobilized gp120BaL in 100 mM β-mercaptoethanol

Row | Substance | percent of the binding seen under native conditions [1] | percent of the binding seen under native conditions [2]
1 | MAb 2G12 (antibody) | 50% | 50%
2 | MAb IgG1 b12 (antibody) | 50% | 50%
